Our source for the EC50 and Max effect values is US20250171562A1 (ALK ABELL, published 2025).

B1: CIgG4B3A1(G4S)3 (Fc fusion)
chain 1: GPPCPPCPAPEFLGGPSVFLFPPKPKDTLMISRTPEVTCVVVDVSQEDPEVQFNWYVDGVEVHNAKTKPREEQFNSTYRVVSVLTVLHQDWLNGKEYKCKVSNKGLPSSIEKTISKAKGQPREPQVYTLPPCQEEMTKNQVSLWCLVKGFYPSDIAVEWESNGQPENNYKTTPPVLDSDGSFFLYSRLTVDKSRWQEGNVFSCSVMHEALHNHYTQKSLSLSLGKGGGGSGGGGSGGGGSDVQLQESGGGLVQAGGSLRLSCAASGFIFRLAGMSWVRQAPGKGFEWVSGITMDGSTTNYADSVKGRFTISRDNSKNRLYLQMNSLKPEDTAVYYCARGAKGGYNDPRGQGTQVTVS
chain 2: GPPCPPCPAPEFLGGPSVFLFPPKPKDTLMISRTPEVTCVVVDVSQEDPEVQFNWYVDGVEVHNAKTKPREEQFNSTYRVVSVLTVLHQDWLNGKEYKCKVSNKGLPSSIEKTISKAKGQPREPQVCTLPPSQEEMTKNQVSLSCAVKGFYPSDIAVEWESNGQPENNYKTTPPVLDSDGSFFLVSRLTVDKSRWQEGNVFSCSVMHEALHNHYTQKSLSLSLGKGGGGSGGGGSGGGGSEVQLLESGGGLVQPGGSLRLSCAASGFTFGNYDMAWVRQAPGKRPEWVSSIDTGGDITHYADSVKGRFTISRDNAKNTLYLQMNSLRPEDTAVYWCATDEEYALGPNEFDYYGQGTLVTVSS
notes: also called CIgG4B3A1(GS)3
B2: CIgG4D1A1(G4S)3 (Fc fusion)
chain 1: GPPCPPCPAPEFLGGPSVFLFPPKPKDTLMISRTPEVTCVVVDVSQEDPEVQFNWYVDGVEVHNAKTKPREEQFNSTYRVVSVLTVLHQDWLNGKEYKCKVSNKGLPSSIEKTISKAKGQPREPQVYTLPPCQEEMTKNQVSLWCLVKGFYPSDIAVEWESNGQPENNYKTTPPVLDSDGSFFLYSRLTVDKSRWQEGNVFSCSVMHEALHNHYTQKSLSLSLGKGGGGSGGGGSGGGGSDVQLQESGGGLVQAGGSLRLSCAASGLTFSRCDMGWFRQAPGKEREFVARISANGASTHYADFVKGRFTISRDNAKNTVYLQMNYLKPEDTAVYICAAARVPVTWQLYDYWGQGTQVTVS
chain 2: B1 chain 2
B3: CIgG4D1A1(RS) (Fc fusion)
chain 1: GPPCPPCPAPEFLGGPSVFLFPPKPKDTLMISRTPEVTCVVVDVSQEDPEVQFNWYVDGVEVHNAKTKPREEQFNSTYRVVSVLTVLHQDWLNGKEYKCKVSNKGLPSSIEKTISKAKGQPREPQVYTLPPCQEEMTKNQVSLWCLVKGFYPSDIAVEWESNGQPENNYKTTPPVLDSDGSFFLYSRLTVDKSRWQEGNVFSCSVMHEALHNHYTQKSLSLSLGKRSDVQLQESGGGLVQAGGSLRLSCAASGLTFSRCDMGWFRQAPGKEREFVARISANGASTHYADFVKGRFTISRDNAKNTVYLQMNYLKPEDTAVYICAAARVPVTWQLYDYWGQGTQVTVS
chain 2: GPPCPPCPAPEFLGGPSVFLFPPKPKDTLMISRTPEVTCVVVDVSQEDPEVQFNWYVDGVEVHNAKTKPREEQFNSTYRVVSVLTVLHQDWLNGKEYKCKVSNKGLPSSIEKTISKAKGQPREPQVCTLPPSQEEMTKNQVSLSCAVKGFYPSDIAVEWESNGQPENNYKTTPPVLDSDGSFFLVSRLTVDKSRWQEGNVFSCSVMHEALHNHYTQKSLSLSLGKRSEVQLLESGGGLVQPGGSLRLSCAASGFTFGNYDMAWVRQAPGKRPEWVSSIDTGGDITHYADSVKGRFTISRDNAKNTLYLQMNSLRPEDTAVYWCATDEEYALGPNEFDYYGQGTLVTVSS
B4: CIgG4D2A1(RS) (Fc fusion)
chain 1: GPPCPPCPAPEFLGGPSVFLFPPKPKDTLMISRTPEVTCVVVDVSQEDPEVQFNWYVDGVEVHNAKTKPREEQFNSTYRVVSVLTVLHQDWLNGKEYKCKVSNKGLPSSIEKTISKAKGQPREPQVYTLPPCQEEMTKNQVSLWCLVKGFYPSDIAVEWESNGQPENNYKTTPPVLDSDGSFFLYSRLTVDKSRWQEGNVFSCSVMHEALHNHYTQKSLSLSLGKRSDVQLQESGGGLVEAGGSLRLSCVASGRTFSGWSMGWFRQAPGKEREFVAAISWVGSWIGGTVYSNSVKGRFTISRDNARTTVYLQMNSLKPEDTAVYFCAAANSETPRIFASEYDYWGQGTQVTVS
chain 2: B3 chain 2
B5: CIgG4D1A1(G4S)2 (Fc fusion)
chain 1: GPPCPPCPAPEFLGGPSVFLFPPKPKDTLMISRTPEVTCVVVDVSQEDPEVQFNWYVDGVEVHNAKTKPREEQFNSTYRVVSVLTVLHQDWLNGKEYKCKVSNKGLPSSIEKTISKAKGQPREPQVYTLPPCQEEMTKNQVSLWCLVKGFYPSDIAVEWESNGQPENNYKTTPPVLDSDGSFFLYSRLTVDKSRWQEGNVFSCSVMHEALHNHYTQKSLSLSLGKGGGGSGGGGSDVQLQESGGGLVQAGGSLRLSCAASGLTFSRCDMGWFRQAPGKEREFVARISANGASTHYADFVKGRFTISRDNAKNTVYLQMNYLKPEDTAVYICAAARVPVTWQLYDYWGQGTQVTVS
chain 2: GPPCPPCPAPEFLGGPSVFLFPPKPKDTLMISRTPEVTCVVVDVSQEDPEVQFNWYVDGVEVHNAKTKPREEQFNSTYRVVSVLTVLHQDWLNGKEYKCKVSNKGLPSSIEKTISKAKGQPREPQVCTLPPSQEEMTKNQVSLSCAVKGFYPSDIAVEWESNGQPENNYKTTPPVLDSDGSFFLVSRLTVDKSRWQEGNVFSCSVMHEALHNHYTQKSLSLSLGKGGGGSGGGGSEVQLLESGGGLVQPGGSLRLSCAASGFTFGNYDMAWVRQAPGKRPEWVSSIDTGGDITHYADSVKGRFTISRDNAKNTLYLQMNSLRPEDTAVYWCATDEEYALGPNEFDYYGQGTLVTVSS
B6: CIgG4D2A1(G4S)2 (Fc fusion)
chain 1: GPPCPPCPAPEFLGGPSVFLFPPKPKDTLMISRTPEVTCVVVDVSQEDPEVQFNWYVDGVEVHNAKTKPREEQFNSTYRVVSVLTVLHQDWLNGKEYKCKVSNKGLPSSIEKTISKAKGQPREPQVYTLPPCQEEMTKNQVSLWCLVKGFYPSDIAVEWESNGQPENNYKTTPPVLDSDGSFFLYSRLTVDKSRWQEGNVFSCSVMHEALHNHYTQKSLSLSLGKGGGGSGGGGSDVQLQESGGGLVEAGGSLRLSCVASGRTFSGWSMGWFRQAPGKEREFVAAISWVGSWIGGTVYSNSVKGRFTISRDNARTTVYLQMNSLKPEDTAVYFCAAANSETPRIFASEYDYWGQGTQVTVS
chain 2: B5 chain 2
B7: CIgG4D1A1(G4S)1 (Fc fusion)
chain 1: GPPCPPCPAPEFLGGPSVFLFPPKPKDTLMISRTPEVTCVVVDVSQEDPEVQFNWYVDGVEVHNAKTKPREEQFNSTYRVVSVLTVLHQDWLNGKEYKCKVSNKGLPSSIEKTISKAKGQPREPQVYTLPPCQEEMTKNQVSLWCLVKGFYPSDIAVEWESNGQPENNYKTTPPVLDSDGSFFLYSRLTVDKSRWQEGNVFSCSVMHEALHNHYTQKSLSLSLGKGGGGSDVQLQESGGGLVQAGGSLRLSCAASGLTFSRCDMGWFRQAPGKEREFVARISANGASTHYADFVKGRFTISRDNAKNTVYLQMNYLKPEDTAVYICAAARVPVTWQLYDYWGQGTQVTVS
chain 2: GPPCPPCPAPEFLGGPSVFLFPPKPKDTLMISRTPEVTCVVVDVSQEDPEVQFNWYVDGVEVHNAKTKPREEQFNSTYRVVSVLTVLHQDWLNGKEYKCKVSNKGLPSSIEKTISKAKGQPREPQVCTLPPSQEEMTKNQVSLSCAVKGFYPSDIAVEWESNGQPENNYKTTPPVLDSDGSFFLVSRLTVDKSRWQEGNVFSCSVMHEALHNHYTQKSLSLSLGKGGGGSEVQLLESGGGLVQPGGSLRLSCAASGFTFGNYDMAWVRQAPGKRPEWVSSIDTGGDITHYADSVKGRFTISRDNAKNTLYLQMNSLRPEDTAVYWCATDEEYALGPNEFDYYGQGTLVTVSS
B8: CIgG4D2A1(G4S)1 (Fc fusion)
chain 1: GPPCPPCPAPEFLGGPSVFLFPPKPKDTLMISRTPEVTCVVVDVSQEDPEVQFNWYVDGVEVHNAKTKPREEQFNSTYRVVSVLTVLHQDWLNGKEYKCKVSNKGLPSSIEKTISKAKGQPREPQVYTLPPCQEEMTKNQVSLWCLVKGFYPSDIAVEWESNGQPENNYKTTPPVLDSDGSFFLYSRLTVDKSRWQEGNVFSCSVMHEALHNHYTQKSLSLSLGKGGGGSDVQLQESGGGLVEAGGSLRLSCVASGRTFSGWSMGWFRQAPGKEREFVAAISWVGSWIGGTVYSNSVKGRFTISRDNARTTVYLQMNSLKPEDTAVYFCAAANSETPRIFASEYDYWGQGTQVTVS
chain 2: B7 chain 2

The target in this assay is T1, recombinant human IgE (human, UniProt P01854-1 1-428).
T1 construct: made in-house (ALK); preloaded on immobilised FcεRIα in the displacement ELISA
T1 sequence (P01854 other isoform, or with tags, fused parts or gaps): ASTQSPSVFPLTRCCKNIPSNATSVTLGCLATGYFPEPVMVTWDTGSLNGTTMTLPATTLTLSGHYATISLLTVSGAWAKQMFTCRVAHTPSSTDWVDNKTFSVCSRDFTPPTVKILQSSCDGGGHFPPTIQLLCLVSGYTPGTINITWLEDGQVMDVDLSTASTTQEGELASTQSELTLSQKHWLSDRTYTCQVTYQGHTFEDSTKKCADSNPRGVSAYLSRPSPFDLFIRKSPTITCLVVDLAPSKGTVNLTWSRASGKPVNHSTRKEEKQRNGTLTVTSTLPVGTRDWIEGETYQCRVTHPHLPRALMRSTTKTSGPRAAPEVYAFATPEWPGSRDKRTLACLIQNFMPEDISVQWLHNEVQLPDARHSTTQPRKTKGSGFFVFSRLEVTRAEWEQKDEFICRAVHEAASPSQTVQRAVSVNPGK
As to the kind of experiment: IgE-FcεRIα displacement ELISA. The procedure, abridged:
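sdAbs at pM–μM were incubated 1 h on preformed complexes of 13 ng/ml recombinant human IgE with avi-tag-biotinylated human FcεRIα captured on streptavidin.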
The EC50 is the concentration giving half of the maximal effect. As for B1, the EC50 was 5.4 nM and the Max effect amounted to 95%.

In the case of B2, the EC50 was determined as 14 nM and the Max effect was over 95%.

With B3, the Max effect was 30%.

B4: the Max effect is 35%.

In the case of B5, the EC50 came to 30 nM and the Max effect was over 95%.

Take B6: the EC50 is 7 nM and the Max effect was over 95%.

As for B7, the concentration for a half-maximal effect (EC50) was 52 nM and the Max effect amounted to 90%.

On to B8, for which the EC50 worked out at 25 nM and the Max effect was over 95%.
